Assays:
XRCC1 = XRCC1 (human, UniProt P18887 1-633); test: fluorescence titration; TAF-XRCC1; n 0.90; 50 mM HEPES pH 8.0, 100 mM NaCl, 4 mM DTT (+10 mM EDTA for APE1); labelled protein from 20 nM; temperature not stated; conditions: protein: recombinant; tags: TAF-labelled; blunt outer ends, 1-nt gap; upstream 15-mer + downstream 16-mer on 32-mer template
AP endonuclease 1 (APE1) = AP endonuclease 1 (APE1) (human, UniProt P27695 1-318); test: fluorescence titration; TAF-APE1; 10 mM EDTA; n 1.15; 50 mM HEPES pH 8.0, 100 mM NaCl, 4 mM DTT (+10 mM EDTA for APE1); labelled protein from 20 nM; temperature not stated; conditions: protein: recombinant; tags: TAF- or FAM-labelled (terminal amino group primarily); blunt outer ends, 1-nt gap; upstream 15-mer + downstream 16-mer on 32-mer template
[1] = biological target: T1, DNA polymerase beta (Polβ) (rat, UniProt P06766 1-335); test: fluorescence titration; FAM-Polβ; n 1.3; 50 mM HEPES pH 8.0, 100 mM NaCl, 4 mM DTT (+10 mM EDTA for APE1); labelled protein from 20 nM; temperature not stated
[2] = biological target: T1, DNA polymerase beta (Polβ); test: fluorescence titration; TAF-Polβ; n 0.94; 50 mM HEPES pH 8.0, 100 mM NaCl, 4 mM DTT (+10 mM EDTA for APE1); labelled protein from 20 nM; temperature not stated

B1: gap-DNA (dsDNA)
DNA 1: GGCGATTAAGTTGGG
DNA 2: AACGTCAGGGTCTTCC
DNA 3: GGAAGACCCTGACGTTACCCAACTTAATCGCC
modifications: 5'-phosphate on downstream primer
Question: Which results are given for B1?
Answer: apparent K (half saturation) (XRCC1): 25 ± 4 nM; apparent K (half saturation) (AP endonuclease 1 (APE1)): 25 ± 3 nM; apparent K (half saturation) [1]: 23 nM; apparent K (half saturation) [2]: 30 nM
